Test: immunofluorescence colocalisation with ER marker PDI (PCC)
Settings: glycan lost; control: wild-type hACE2, DMSO

## human ACE2 (hACE2): N90Q/N322Q/N546Q/N53Q/N103Q
  localisation_or_trafficking: changes

From publication PMC8557876
